{
  "source": "paper PMC9464622",
  "about": "“The collectin SP-A and its trimeric recombinant fragment protect alveolar epithelial cells from the cytotoxic and proinflammatory effects of human cathelicidin in vitro” (Frontiers in Immunology, 2022)",
  "origin": "cited, not measured here",
  "molecules": {"B1": {"name": "p33: negatively charged protein expressed on the surface of various cell types (protein, UniProt Q07021 74-282, looked up)", "Complement component 1 Q …": "LHTDGDKAFVDFLSDEIKEERKIQKHKTLPKMSGGWELELNGTEAKLVRKVAGEKITVTFNINNSIPPTFDGEEEPSQGQKVEEQEPELTSTPNFVVEVIKNDDGKKALVLDCHYPEDEVGQEDEAESDIFSIREVSFQSTGESEWKDTNYTLNTDSLDWALYDHLMDFLADRGVDNTFADELVELSTALEHQEYITFLEDLKSFVKSQ"}},
  "system": "LL-37 and β-defensin 3",
  "excerpt": "The host appears to protect its own cells from LL-37 cytotoxicity by several mechanisms. […] In addition, the C1q globular head receptor (gC1qR, also known as p33) protects ...",
  "data": [
    {"molecule": "B1", "values": [
      {"measurement": "binding of LL-37 and β-defensin 3", "result": "binds LL-37 and β-defensin 3 with high affinity"}
    ]}
  ]
}
